Measured values as given in article PMC7463553, “Thiol Redox Regulation of Plant β-Carbonic Anhydrase” (Biomolecules, 2020).

Target: the molecule itself
Assay: dynamic light scattering; 320 µM βCA1 after addition of 20 mM DTT or in the presence of 500 µM H2O2; 50 mM Na-phosphate pH 8; 25 °C; intensity converted to volume percentage

B1: β-carbonic anhydrase 1 (βCA1) from Arabidopsis thaliana (enzyme, UniProt P27140 114-347, looked up)
chain: ALQTGTSSDKKAFDPVETIKQGFIKFKKEKYETNPALYGELAKGQSPKYMVFACSDSRVCPSHVLDFQPGDAFVVRNIANMVPPFDKVKYGGVGAAIEYAVLHLKVENIVVIGHSACGGIKGLMSFPLDGNNSTDFIEDWVKICLPAKSKVISELGDSAFEDQCGRCEREAVNVSLANLLTYPFVREGLVKGTLALKGGYYDFVKGAFELWGLEFGLSETSSVKDVATILHWKL
notes: β-carbonic anhydrase 1 (βCA1, βCA1.1), Arabidopsis thaliana, UniProt P27140, At3g01500; The protein was analysed both reduced (DTT) and oxidised (H2O2); also called βCA1.1; chloroplast βCA; source: E. coli NiCo21 (DE3), purified (passage through a chitin column, Ni-NTA beads, dialysis)
Q: B1 was tested. Which “stoichiometry N” value did it give?
A: 2
